Here are results for two molecules from US7851436.

The assay deals with integrins αVβ3 and αVβ5. Description: inhibition of Ch-1 cell adhesion to coated PIIBNP by synthetic peptide (FIG. 3C).

Usually IC50 stands for the midpoint of a concentration-inhibition curve.

GRGDNP [synthetic GRGDNP peptide] displayed an IC50 of 10 µM.
In the case of GRADNP [synthetic GRADNP peptide], the IC50 was 60 µM.
